Substitutions are numbered along the chain they refer to. Numbers in names are those of the source.
Assays:
[1] = system: CC(C)(COP(=O)(O)OP(=O)(O)OC[C@H]1O[C@@H](n2cnc3c(N)ncnc32)[C@H](O)[C@@H]1OP(=O)(O)O)[C@@H](O)C(=O)NCCC(=O)NCCSC(=O)CF; assay: purified protein; assay type: biochemical, Streptantibioticus cattleyicolor; details: 100 mM Tris-HCl pH 7.6, 25 °C, 0.5 mM DTNB
[2] = system: CC(=O)SCCNC(=O)CCNC(=O)[C@H](O)C(C)(C)COP(=O)(O)OP(=O)(O)OC[C@H]1O[C@@H](n2cnc3c(N)ncnc32)[C@H](O)[C@@H]1OP(=O)(O)O; assay: purified protein; assay type: biochemical, Streptantibioticus cattleyicolor; details: 100 mM Tris-HCl pH 7.6, 25 °C, 0.5 mM DTNB
[3] = biological target: the molecule itself; assay: crystal structure
[4] = biological target: the molecule itself; assay: SEC

For FlK (Streptantibioticus cattleyicolor), which Km [1] is on record?
The Km was 8 ± 1 µM.

And the kcat [1]?
The kcat was 390 ± 20 s⁻¹.

And the kcat/Km [1]?
Its kcat/Km is 5e+07 ± 1e+07 M⁻¹ s⁻¹.

What about the Km [2] of the same molecule?
The Km was “(2.1 ± 0.5) × 10^3 μM”.

What about the kcat [2] of the same molecule?
Its kcat is 0.06 ± 0.01 s⁻¹.

What about the kcat/Km [2] of the same molecule?
The kcat/Km was 30 ± 10 M⁻¹ s⁻¹.

With “FlK (Streptantibioticus cattleyicolor; F33A)” as the molecule, how does the Km [1] read?
The Km was “(1.5 ± 0.4) × 10^3 μM”.

What about the kcat [1] of the same molecule?
The kcat was 27 ± 4 s⁻¹.

And the kcat/Km [1]?
The kcat/Km was 18000 ± 5000 M⁻¹ s⁻¹.

How did the Km [1] turn out when “FlK (Streptantibioticus cattleyicolor; F36A)” was run?
The Km was “(7.1 ± 0.8) × 10^2 μM”.

And the kcat [1]?
The kcat was 270 ± 20 s⁻¹.

What about the kcat/Km [1] of the same molecule?
Its kcat/Km is 370000 ± 50000 M⁻¹ s⁻¹.

What does the source list for “FlK (Streptantibioticus cattleyicolor; H76A)”?
Km [1]: (2.0 ± 0.7) × 10^1 μM; kcat [1]: 0.003 ± 0.0003 s⁻¹; kcat/Km [1]: 150 ± 50 M⁻¹ s⁻¹

With “FlK (Streptantibioticus cattleyicolor; L26A)” as the molecule, how does the Km [1] read?
The Km was “(1.2 ± 0.2) × 10^2 μM”.

And the kcat [1]?
Its kcat is 6.7 ± 0.1 s⁻¹.

What about the kcat/Km [1] of the same molecule?
The kcat/Km was 57000 ± 8000 M⁻¹ s⁻¹.

Which Km [1] does the source give for “FlK (Streptantibioticus cattleyicolor; T42A)” here?
Its Km is “(1.1 ± 0.4) × 10^2 μM”.

And the kcat [1]?
Its kcat is 0.45 ± 0.09 s⁻¹.

What about the kcat/Km [1] of the same molecule?
Its kcat/Km is 4000 ± 2000 M⁻¹ s⁻¹.

What does the source list for “FlK (Streptantibioticus cattleyicolor; T42C)”?
Km [1]: (3.6 ± 1) × 10^2 μM; kcat [1]: 11 ± 2 s⁻¹; kcat/Km [1]: 30000 ± 10000 M⁻¹ s⁻¹

“FlK (Streptantibioticus cattleyicolor; T42S)” was tested. Which Km [1] did it give?
The Km was “(6 ± 2) × 10^1 μM”.

What about the kcat [1] of the same molecule?
The kcat was 19 ± 4 s⁻¹.

And the kcat/Km [1]?
Its kcat/Km is 300000 ± 100000 M⁻¹ s⁻¹.

What about the Km [2] of the same molecule?
The Km was “(6.1 ± 0.9) × 10^1 μM”.

And the kcat [2]?
The kcat was 0.01 ± 0.001 s⁻¹.

What about the kcat/Km [2] of the same molecule?
Its kcat/Km is 160 ± 30 M⁻¹ s⁻¹.

Which results are given for “FlK (Streptantibioticus cattleyicolor; V23A)”?
Km [1]: (3.0 ± 1.5) × 10^2 μM; kcat [1]: 150 ± 30 s⁻¹; kcat/Km [1]: 500000 ± 300000 M⁻¹ s⁻¹

B1: FlK-F36A (enzyme, Streptomyces cattleya)
chain: MKDGMRVGERFTHDFVVPPHKTVRHLYPESPEFAEAPEVFATGFMVGLMEWACVRAMAPYLEPGEGSLGTAICVTHTAATPPGLTVTVTAELRSVEGRRLSWRVSAHDGVDEIGSGTHERAVIHLEKFNAKVRQKTPAG
Does B1 bind [3]?
Result: binds

B2: FlK-E50Q (enzyme, Streptomyces cattleya)
chain: B1 chain with A36F, E50Q
How did the “stoichiometry N” value [4] turn out when B2 was run?
Its value is 2.

Reference: article PMC3461317 (Biochemistry, 2010)
